The results in this text go back to PMC4107485.

Holding throughout (assay): EMSA
(In general: A gel shift assay detects complexes by their altered migration in electrophoresis.)

Series [1] relates to T1, BaeR (Erwinia amylovora Ea1189), ORF:3df56c72.
T1 sequence: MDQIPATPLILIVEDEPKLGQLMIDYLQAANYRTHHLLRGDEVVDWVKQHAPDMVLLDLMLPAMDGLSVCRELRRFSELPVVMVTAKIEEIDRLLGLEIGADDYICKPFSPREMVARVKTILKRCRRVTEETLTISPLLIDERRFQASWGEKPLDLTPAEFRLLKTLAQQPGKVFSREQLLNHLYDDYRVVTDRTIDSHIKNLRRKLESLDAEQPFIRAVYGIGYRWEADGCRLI

The target in series [2] is T2, CpxR (Erwinia amylovora Ea1189) (UniProt A0ABX7MGR0).
T2 sequence: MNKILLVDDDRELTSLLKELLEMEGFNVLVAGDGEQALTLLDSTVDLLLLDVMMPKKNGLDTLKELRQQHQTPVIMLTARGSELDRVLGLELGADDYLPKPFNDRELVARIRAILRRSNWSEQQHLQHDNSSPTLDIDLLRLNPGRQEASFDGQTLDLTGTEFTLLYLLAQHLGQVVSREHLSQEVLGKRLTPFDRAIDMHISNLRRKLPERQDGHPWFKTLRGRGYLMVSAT

In series [3] the test system is BaeR, acetyl phosphate treated (Erwinia amylovora Ea1189).

“TCTACGGTCACGGTTAAGAAACCGCGTCGTCTTTTGCGCCGTCAGCTGCAGATCACCACGCGTATGCGTGGTTTTTTTGGCGCTATTTCATGGCGATAACATATATTAAATCTCGCATTTCTTACGGAATTCTTACGCTGCCAGCATGGAACGCCAGCAGATAAGCTAAGATAATATGCTTAACTACCCACCACCTTTGGACGGGTAAGGGGCTAAAGCCATGCCCTTTACGCCGGGTTTTTGCGCGCCGGGGATTATCCTGTCGGGTGTTGTTTA (double strand) [mdtUVW upstream region]”: the binding entry in series [1] and in series [2] was “no binding” in each case.

With “TGATTCTCCTGATTGATAAGTGGATAACGCAGCTGATAAGACTGGCAAACAGCGTTGCATGCGCTGCGTTGATTTGTAGCATACCATTTGCCAATACTAAATTTTCTCACCGTAGCAGCTCTTATTTAAGCCGTTATCCTTATTTCCTTCATTTTTCAGCGCCTGAAATTCGCTATCCTTGCCAGCCTGGGGGCAAGCCCTAATCCCGCCCCGCGCCCTGCTTTAATTTCACGGAGAGTAGCACCCAGGATGAAAACACCCCGACGTTTCCCCCTTATCGCCTTGACGGT (double strand) [mdtABC upstream region]”, the binding result in series [1] was “binds”; in series [2], “no binding”.

The substance mdtABC upstream region returned a binding signal (fold binding vs unphosphorylated BaeR) in series [3] of 2.
